Assay results from publication PMC10001252.

Legend:
[1] = target: β-lactoglobulin (bovine) (UniProt P02754); test: ITC; LF (0.25 mM, syringe) injected into βLG (0.1 mM, cell); 10 mM MES pH 5.5, no added NaCl, 25 °C; fitted with PyTC
[2] = target: β-lactoglobulin (bovine) (UniProt P02754); test: ITC; LF (0.25 mM, syringe) injected into βLG (0.1 mM, cell); 10 mM MES pH 5.5, 5 mM added NaCl, 25 °C; fitted with PyTC
[3] = target: β-lactoglobulin (bovine) (UniProt P02754); test: ITC; LF (0.25 mM, syringe) injected into βLG (0.1 mM, cell); 10 mM MES pH 5.5, 15 mM added NaCl, 25 °C; fitted with PyTC
[4] = target: β-lactoglobulin (bovine) (UniProt P02754); test: ITC; LF (0.25 mM, syringe) injected into βLG (0.1 mM, cell); 10 mM MES pH 5.5, 20 mM added NaCl, 25 °C; fitted with PyTC
[5] = target: β-lactoglobulin (bovine) (UniProt P02754); test: ITC; LF (0.25 mM, syringe) injected into βLG (0.1 mM, cell); 10 mM MES pH 5.5, 2.5 mM added NaCl, 25 °C; fitted with PyTC
[6] = target: β-lactoglobulin (bovine) (UniProt P02754); test: co-sedimentation + other: turbidity; LF-βLG mixtures (total 0.55 mM) prepared at 0, 100, 200 or 400 mM NaCl and desalted by dialysis (24 h) against 10 mM MES pH 5.5, room temperature; coacervate yield after centrifugation at 28,000 g and HPLC of the supernatant

Ka [1]: 421000 M⁻¹ | dH [1]: -18.8 kcal/mol | Ka [2]: 275000 M⁻¹ | dH [2]: -14.6 kcal/mol | Ka [3]: 84700 M⁻¹ | dH [3]: -12.1 kcal/mol | Ka [4]: 33200 M⁻¹ | dH [4]: -8.94 kcal/mol | Ka [5]: 972000 M⁻¹ | dH [5]: -24.7 kcal/mol | coacervate yield [6]: 55 to 65%
Substance: lactoferrin (natural protein)
